Values of other authors as cited in PMC11166923.

Target: integrin β1D cytoplasmic tail (Homo sapiens) (UniProt P05556)
Chain of UniProt P05556 (P05556 752-798): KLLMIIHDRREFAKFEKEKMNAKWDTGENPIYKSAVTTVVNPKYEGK

Talin-2 (from UniProt Q9Y4G6)
Kd: 30 µM
